Values joined by “and” are separate entries in the source; they are usually repeats but may differ in a detail not shown here. Equal values may be shown once.
T1: CEACAM1-eGFP fusion protein on transfected HEK293T cells (human, UniProt P13688 35-526)
T1 construct: human CEACAM1 expressed from pcDNA3.1 as a GFP fusion; also called GFP-tagged CEACAM1; CEACAM1-GFP; source: HEK293T, transfected (pcDNA3.1, CMV promotor), on cells
T1 sequence (looked up): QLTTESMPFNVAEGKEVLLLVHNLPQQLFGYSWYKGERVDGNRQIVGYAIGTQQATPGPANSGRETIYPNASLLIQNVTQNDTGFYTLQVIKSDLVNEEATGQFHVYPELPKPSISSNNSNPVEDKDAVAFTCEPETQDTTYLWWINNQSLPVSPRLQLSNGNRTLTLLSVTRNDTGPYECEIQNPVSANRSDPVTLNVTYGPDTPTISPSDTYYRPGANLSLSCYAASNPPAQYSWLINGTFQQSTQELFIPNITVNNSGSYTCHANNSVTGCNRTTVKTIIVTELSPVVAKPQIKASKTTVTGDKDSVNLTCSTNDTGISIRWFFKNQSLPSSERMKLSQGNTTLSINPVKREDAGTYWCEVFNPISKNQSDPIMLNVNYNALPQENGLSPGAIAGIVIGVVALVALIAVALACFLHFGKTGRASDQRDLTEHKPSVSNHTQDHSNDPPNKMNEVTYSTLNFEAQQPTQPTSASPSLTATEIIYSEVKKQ

B1: CEACAM binding protein of Fusobacterium (CbpF) from F. nucleatum ATCC25586, wild type, detergent-solubilised (natural protein)
chain: SAAPVIKAGTATDSTEAGVDNVANGVKSSAFGYDNKAIEKESSAFGTGNRATGEFSSAFGFHNIASKIHSSAFGSNNAADGVNSSAFGFKNTVSGFNSSAFGSQYQVTGNFSGAFGMGEFNGQYQYKNEGNNSYMIGNKNKIASGSDDNFILGNNVHIGGGINNSVALGNNSTVSASNTVSVGSSTLKRKIVNVGDGAISANSSDAVTGRQLYSGNGIDTAAWQNKLNVTRKNDYKDANDIDVNKWKAKLGVGSGGGGGAPVDAYTKSEADNKFANKTDLNDYTKKDDYKDANGIDVDKWKAKLGTGAGTADIENLRNEVNEKIDDVKDEVRTVGSLSAALAGLHPMQYDPKAPVQVMAALGHYRDKQSVAVGASYYFNDRFMMSTGIALSGEKRTKTMANVGFTLKLGKGSGVTYDETPQYVVQNEVKRLTVENQELKERVRNLEEKLNMLLKNK
notes: Cloned in pASK-IBA2C behind an N-terminal E. coli OmpA signal peptide; Homotrimer; also called CbpF WT; CbpF wt; source: E. coli BL21 C43, extracted from membranes with lauroylsarcosine, purified (StrepTactin, SEC)
B2: CEACAM1 extracellular domain (residues 35-428), C-terminal hexahistidine tag (domain or fragment, human, UniProt P13688 35-428, looked up)
chain: QLTTESMPFNVAEGKEVLLLVHNLPQQLFGYSWYKGERVDGNRQIVGYAIGTQQATPGPANSGRETIYPNASLLIQNVTQNDTGFYTLQVIKSDLVNEEATGQFHVYPELPKPSISSNNSNPVEDKDAVAFTCEPETQDTTYLWWINNQSLPVSPRLQLSNGNRTLTLLSVTRNDTGPYECEIQNPVSANRSDPVTLNVTYGPDTPTISPSDTYYRPGANLSLSCYAASNPPAQYSWLINGTFQQSTQELFIPNITVNNSGSYTCHANNSVTGCNRTTVKTIIVTELSPVVAKPQIKASKTTVTGDKDSVNLTCSTNDTGISIRWFFKNQSLPSSERMKLSQGNTTLSINPVKREDAGTYWCEVFNPISKNQSDPIMLNVNYNALPQENGLSPG
modifications: glycosylated
notes: carcinoembryonic antigen-related cell adhesion molecule 1 (CEACAM1), human, extracellular domain, residues 35-428; also called CEACAM1-ECD; CEACAM1/ECD; source: bought: ACRO Biosystems, Cat. No. CE1-H5220, produced in HEK293 cells; not shown: His6, C-terminal, kept
B3: CEACAM binding protein of Fusobacterium (CbpF), F. nucleatum ATCC25586, wild type (natural protein)
chain: B1 chain
modifications: AlexaFluor 647 NHS-ester conjugate (cell binding and competition assays only)
notes: CbpF (FN1499) of Fusobacterium nucleatum ATCC25586, codon-optimized gene; mature protein after signal peptide cleavage, residues S24-K479; numbers count on the precursor with its own signal peptide; Cloned in frame with an N-terminal E. coli OmpA signal peptide (export signal; In detergent for SPR and the SEC test, in DMPC/MSP1D1 nanodiscs for cryo-EM and the cell assays; also called CbpF wt; …)
B4: CEACAM1 extracellular domain (residues 35–428), C-terminal hexahistidine tag (domain or fragment, human, UniProt P13688 35-428, looked up)
chain: B2 chain
modifications: glycosylated (N-acetylglucosamines modelled on the IgV-like and IgC2-like A1 domains)
notes: human carcinoembryonic antigen-related cell adhesion molecule 1 (CEACAM1), extracellular domain, residues 35-428 of UniProt P13688; also called CEACAM1/ECD; CEACAM1-ECD; source: bought: ACRO Biosystems (Cat. No. CE1-H5220), produced in HEK293 cells; not shown: His6, C-terminal, kept

Experiments:
[1] = target: the molecule itself; assay: SDS-PAGE (SDS- and heat-resistant oligomer); elution fractions of membrane-extracted CbpF from StrepTactin resin; monomer at 50 kDa, trimer at 150 kDa
[2] = target: B1; assay: SPR; CEACAM1-ECD-His6 captured (about 35 RU) on anti-His antibody on a CM5 chip, Biacore T200; CbpF injected at 11.5-1480 nM (WT) or 15.6-1000 nM (WT and variants); 25 mM MOPS-NaOH, 150 mM NaCl, 1 % P8POE, pH 7.0, 25 °C; 240 s association, 600 s dissociation; 1:1 Langmuir global fit; conditions: both partners purified
[3] = target: the molecule itself; assay: SDS-PAGE (SDS- and heat-resistant oligomer); purified CbpF, in detergent and after reconstitution in DMPC/MSP1D1 nanodiscs; band above 150 kDa
[4] = target: B4; assay: cryo-EM structure; 4.6 µM nanodisc-embedded CbpF (trimer) incubated with 14 µM CEACAM1/ECD for 60 min at 23 °C, excess CEACAM1 removed by SEC; single particle analysis, C3 symmetry; conditions: both partners purified
[5] = target: T1, CEACAM1-eGFP fusion protein on …; assay: confocal fluorescence microscopy of labelled protein on cells; 1 µM AlexaFluor 647-labelled CbpF nanodiscs on HEK293T cells transfected with CEACAM1-GFP, 2 h at 37 °C, compared with empty nanodiscs; integrated fluorescence colocalizing with GFP or with the membrane stain; conditions: one partner purified
[6] = target: B3; assay: SPR; same sensorgrams as a4, steady-state signals of the binding curves evaluated; conditions: both partners purified
[7] = target: B3; assay: competition of cell binding (confocal fluorescence microscopy); labelled CbpF nanodiscs preincubated with 1 or 2 µM purified CEACAM1-ECD for 30 min at 25 °C before incubation with cells; conditions: both partners purified
[8] = target: B3; assay: SPR; Biacore T200; CEACAM1-ECD-His6 captured on an anti-His antibody on a CM5 chip (~35 RU); CbpF injected, 11.5 to 1,480 nM (WT) or 15.6 to 1,000 nM (WT and variants); 25 mM MOPS-NaOH, 150 mM NaCl, 1 % P8POE, pH 7.0, 25 °C; global fit with a 1:1 Langmuir or a heterogeneous ligand model; conditions: both partners purified

Question: With B1 as the binder, how does the “stoichiometry N” value [1] read?
Answer: The value was 3.

Question: What does the source list for B2?
Answer: Kd [2]: 6.16 nM and 6.29 nM; koff [2]: 0.000501 s⁻¹ and 0.000844 s⁻¹; kon [2]: 134000 M⁻¹ s⁻¹

Question: With B3 as the binder, how does the “stoichiometry N” value [3] read?
Answer: Its value is 3.

Question: And the “stoichiometry N” value [4]?
Answer: The value was 1 CEACAM1 per CbpF protomer.

Question: What about the “fold increase of the mean fluorescence signal over empty nanodiscs (colocalizing with cells)” value [5] of the same binder?
Answer: Its value is 9.3 fold.

Question: What about the “fold increase of the mean fluorescence signal over nanodiscs without CbpF (colocalizing with CEACAM1-GFP)” value [5] of the same binder?
Answer: The value was roughly 460 fold.

Question: How did the Kd [6] turn out when B4 was run?
Answer: The Kd was 75 ± 14 nM.

Question: And the “fold decrease of the CbpF signal on cells after preincubation” value [7]?
Answer: The value was roughly 11 fold.

Question: And the Kd [8]?
Answer: The Kd was 6.2 nM.

Question: What about the koff [8] of the same binder?
Answer: The koff was 0.00051 s⁻¹.

Question: What about the kon [8] of the same binder?
Answer: The kon was 81300 M⁻¹ s⁻¹.

— publication PMC12012533, “Structural basis for immune cell binding of Fusobacterium nucleatum via the trimeric autotransporter adhesin CbpF” (Proceedings of the National Academy of Sciences of the …, 2025)
